Experimental data as given in patent US11325966.

How the values were obtained:
Assay in all cases: cell-based or functional assay
[1] = molecular target: HIV-1 Env of pseudovirus R2184.c04 (HIV-1)
[2] = molecular target: HIV-1 Env of pseudovirus CNE8 (HIV-1)
[3] = molecular target: HIV-1 Env of pseudovirus ZM197M.PB7 (HIV-1)
[4] = molecular target: HIV-1 Env of pseudovirus TRO.11 (HIV-1)
[5] = molecular target: HIV-1 Env of pseudovirus HIV-16845-2.22 (HIV-1)
[6] = molecular target: HIV-1 Env of pseudovirus C2101.c01 (HIV-1)
[7] = molecular target: HIV-1 Env of pseudovirus 928-28 (HIV-1)
[8] = molecular target: HIV-1 Env of pseudovirus BJOX015000.11.5 (HIV-1)
[9] = molecular target: HIV-1 Env of pseudovirus TRJO4551.58 (HIV-1)
[10] = molecular target: HIV-1 Env of pseudovirus Ce703010054_2A2 (HIV-1)
[11] = molecular target: HIV-1 Env of pseudovirus X1193_c1 (HIV-1)
[12] = molecular target: HIV-1 Env of pseudovirus HIV-0013095-2.11 (HIV-1)
[13] = molecular target: HIV-1 Env of pseudovirus 3817.v2.c59 (HIV-1)
[14] = molecular target: HIV-1 Env of pseudovirus P0402_c2_11 (HIV-1)
[15] = molecular target: HIV-1 Env of pseudovirus 191955_A11 (HIV-1)
[16] = molecular target: HIV-1 Env of pseudovirus ZM249M.PL1 (HIV-1)
[17] = molecular target: HIV-1 Env of pseudovirus ZM109F.PB4 (HIV-1)
[18] = molecular target: HIV-1 Env of pseudovirus 3365.v2.c2 (HIV-1)
[19] = molecular target: HIV-1 Env of pseudovirus CNE30 (HIV-1)
[20] = molecular target: HIV-1 Env of pseudovirus R3265.c06 (HIV-1)
[21] = molecular target: HIV-1 Env of pseudovirus C4118.c09 (HIV-1)
[22] = molecular target: HIV-1 Env of pseudovirus X1632_S2_B10 (HIV-1)
[23] = molecular target: HIV-1 Env of pseudovirus 231966.c02 (HIV-1)
[24] = molecular target: HIV-1 Env of pseudovirus 246F C1G (HIV-1)
[25] = molecular target: HIV-1 Env of pseudovirus RHPA4259.7 (HIV-1)
[26] = molecular target: HIV-1 Env of pseudovirus Ce2010_F5 (HIV-1)
[27] = molecular target: HIV-1 Env of pseudovirus 6952.v1.c20 (HIV-1)
[28] = molecular target: HIV-1 Env of pseudovirus Ce1086_B2 (HIV-1)
[29] = molecular target: HIV-1 Env of pseudovirus 1054_07_TC4_1499 (HIV-1)
[30] = molecular target: HIV-1 Env of pseudovirus Ce1172_H1 (HIV-1)
[31] = molecular target: HIV-1 Env of pseudovirus 6244_13_B5_4576 (HIV-1)
[32] = molecular target: HIV-1 Env of pseudovirus Ce1176_A3 (HIV-1)
[33] = molecular target: HIV-1 Env of pseudovirus Q23.17 (HIV-1)
[34] = molecular target: HIV-1 Env of pseudovirus 263-8 (HIV-1)
[35] = molecular target: HIV-1 Env of pseudovirus Ce0682_E4 (HIV-1)
[36] = molecular target: HIV-1 Env of pseudovirus 191821_E6_1 (HIV-1)
[37] = molecular target: HIV-1 Env of pseudovirus 3415.v1.c1 (HIV-1)
[38] = molecular target: HIV-1 Env of pseudovirus QH0692.42 (HIV-1)
[39] = molecular target: HIV-1 Env of pseudovirus 3016.v5.c45 (HIV-1)
[40] = molecular target: HIV-1 Env of pseudovirus Du156.12 (HIV-1)

With 354BG8 (antibody) the IC50 in TZM-bl assay [1] was > 10 µg/mL, the IC80 in TZM-bl assay [1] was > 10 µg/mL and the IC50 in TZM-bl assay [2] was > 10 µg/mL. The IC80 in TZM-bl assay [2] was > 10 µg/mL, the IC50 in TZM-bl assay [3] was > 10 µg/mL and the IC80 in TZM-bl assay [3] was > 10 µg/mL. For the same substance, the IC50 in TZM-bl assay [4] was 0.011 µg/mL, the IC80 in TZM-bl assay [4] was 0.039 µg/mL and the IC50 in TZM-bl assay [5] was 0.727 µg/mL. For the same substance, the IC80 in TZM-bl assay [5] was 3.93 µg/mL, the IC50 in TZM-bl assay [6] was > 10 µg/mL and the IC80 in TZM-bl assay [6] was > 10 µg/mL. For the same substance, the IC50 in TZM-bl assay [7] was 0.616 µg/mL, the IC80 in TZM-bl assay [7] was 2.4 µg/mL and the IC50 in TZM-bl assay [8] was > 10 µg/mL. The IC80 in TZM-bl assay [8] was > 10 µg/mL, the IC50 in TZM-bl assay [9] was 0.057 µg/mL and the IC80 in TZM-bl assay [9] was 0.218 µg/mL. For the same substance, the IC50 in TZM-bl assay [10] was > 10 µg/mL, the IC80 in TZM-bl assay [10] was > 10 µg/mL and the IC50 in TZM-bl assay [11] was 0.07 µg/mL. For the same substance, the IC80 in TZM-bl assay [11] was 0.207 µg/mL, the IC50 in TZM-bl assay [12] was > 10 µg/mL and the IC80 in TZM-bl assay [12] was > 10 µg/mL. For the same substance, the IC50 in TZM-bl assay [13] was 0.706 µg/mL, the IC80 in TZM-bl assay [13] was 4.49 µg/mL and the IC50 in TZM-bl assay [14] was 0.008 µg/mL. The IC80 in TZM-bl assay [14] was 0.024 µg/mL, the IC50 in TZM-bl assay [15] was > 10 µg/mL and the IC80 in TZM-bl assay [15] was > 10 µg/mL. For the same substance, the IC50 in TZM-bl assay [16] was > 10 µg/mL, the IC80 in TZM-bl assay [16] was > 10 µg/mL and the IC50 in TZM-bl assay [17] was > 10 µg/mL. The IC80 in TZM-bl assay [17] was > 10 µg/mL, the IC50 in TZM-bl assay [18] was 0.057 µg/mL and the IC80 in TZM-bl assay [18] was 0.2 µg/mL. For the same substance, the IC50 in TZM-bl assay [19] was 0.261 µg/mL, the IC80 in TZM-bl assay [19] was 0.678 µg/mL and the IC50 in TZM-bl assay [20] was > 10 µg/mL. For the same substance, the IC80 in TZM-bl assay [20] was > 10 µg/mL, the IC50 in TZM-bl assay [21] was > 10 µg/mL and the IC80 in TZM-bl assay [21] was > 10 µg/mL. For the same substance, the IC50 in TZM-bl assay [22] was > 10 µg/mL, the IC80 in TZM-bl assay [22] was > 10 µg/mL and the IC50 in TZM-bl assay [23] was > 10 µg/mL. The IC80 in TZM-bl assay [23] was > 10 µg/mL, the IC50 in TZM-bl assay [24] was 0.035 µg/mL and the IC80 in TZM-bl assay [24] was 0.119 µg/mL. The IC50 in TZM-bl assay [25] was 0.023 µg/mL, the IC80 in TZM-bl assay [25] was 0.083 µg/mL and the IC50 in TZM-bl assay [26] was > 10 µg/mL. The IC80 in TZM-bl assay [26] was > 10 µg/mL, the IC50 in TZM-bl assay [27] was 0.023 µg/mL and the IC80 in TZM-bl assay [27] was 0.086 µg/mL. For the same substance, the IC50 in TZM-bl assay [28] was > 10 µg/mL, the IC80 in TZM-bl assay [28] was > 10 µg/mL and the IC50 in TZM-bl assay [29] was 0.048 µg/mL. For the same substance, the IC80 in TZM-bl assay [29] was 0.222 µg/mL, the IC50 in TZM-bl assay [30] was 0.019 µg/mL and the IC80 in TZM-bl assay [30] was 0.083 µg/mL. It also gave an IC50 in TZM-bl assay [31] of 0.091 µg/mL, an IC80 in TZM-bl assay [31] of 0.38 µg/mL and an IC50 in TZM-bl assay [32] of 0.022 µg/mL. The IC80 in TZM-bl assay [32] was 0.07 µg/mL, the IC50 in TZM-bl assay [33] was 0.005 µg/mL and the IC80 in TZM-bl assay [33] was 0.015 µg/mL. For the same substance, the IC50 in TZM-bl assay [34] was 0.416 µg/mL, the IC80 in TZM-bl assay [34] was 5.71 µg/mL and the IC50 in TZM-bl assay [35] was > 10 µg/mL. The IC80 in TZM-bl assay [35] was > 10 µg/mL, the IC50 in TZM-bl assay [36] was > 10 µg/mL and the IC80 in TZM-bl assay [36] was > 10 µg/mL. For the same substance, the IC50 in TZM-bl assay [37] was > 10 µg/mL, the IC80 in TZM-bl assay [37] was > 10 µg/mL and the IC50 in TZM-bl assay [38] was 0.106 µg/mL. For the same substance, the IC80 in TZM-bl assay [38] was 0.383 µg/mL, the IC50 in TZM-bl assay [39] was > 10 µg/mL and the IC80 in TZM-bl assay [39] was > 10 µg/mL. The IC50 in TZM-bl assay [40] was 0.01 µg/mL and the IC80 in TZM-bl assay [40] was 0.036 µg/mL.
